# B1: SDC2, P34741 (peptide)
# chain: QKAPTKEFYA
# B2: ADGRA3, Q8IWK6 (peptide)
# chain: TGLWKHETTV
# B3: PLXNB1, O43157 (peptide)
# chain: AAVENKVTDL
# B4: JUP, P14923 (peptide)
# chain: PYPTADHMLA
# Molecular target: T1, APBA2_1, Q99767
# T1 sequence (Q99767 563-664, limits assumed, looked up): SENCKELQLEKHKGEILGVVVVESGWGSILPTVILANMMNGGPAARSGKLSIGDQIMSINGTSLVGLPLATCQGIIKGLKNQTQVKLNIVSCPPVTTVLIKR
# Experiment: holdup assay
# Parameters: key: below the threshold = too weak to quantify, mostly under pKd 3.1 to 4
# Settings: plain residues with an end cap or a label only (N-terminal biotin on a linker: ado-ado)
row,Binder,pKd
1,B1,below the threshold
2,B2,below the threshold
3,B3,below the threshold
4,B4,below the threshold

# Molecular target: T2, APBA3_1, O96018
# T2 sequence (O96018 389-490, limits assumed, looked up): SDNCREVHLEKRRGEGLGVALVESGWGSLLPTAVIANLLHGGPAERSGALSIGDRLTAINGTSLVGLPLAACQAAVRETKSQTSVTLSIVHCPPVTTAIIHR
# Experiment: holdup assay
# Parameters: key: below the threshold = too weak to quantify, mostly under pKd 3.1 to 4
# Settings: plain residues with an end cap or a label only (N-terminal biotin on a linker: ado-ado)
row,Binder,pKd
1,B1,below the threshold
2,B2,below the threshold
3,B3,below the threshold
4,B4,below the threshold

# Molecular target: CASK, O14936
# Experiment: holdup assay
# Parameters: key: below the threshold = too weak to quantify, mostly under pKd 3.1 to 4
# Settings: plain residues with an end cap or a label only (N-terminal biotin on a linker: ado-ado)
# Chain of CASK, O14936 (O14936 487-570): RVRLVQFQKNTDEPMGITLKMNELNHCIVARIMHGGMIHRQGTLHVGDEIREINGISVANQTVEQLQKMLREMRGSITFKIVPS
row,Binder,pKd
1,B1,below the threshold
2,B2,below the threshold
3,B3,below the threshold
4,B4,below the threshold

# Molecular target: T3, DFNB31_2, Q9P202
# T3 sequence (Q9P202 274-371, limits assumed, looked up): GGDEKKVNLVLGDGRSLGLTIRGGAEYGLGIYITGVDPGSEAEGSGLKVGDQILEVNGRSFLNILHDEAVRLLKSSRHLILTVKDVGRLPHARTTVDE
# Experiment: holdup assay
# Parameters: key: below the threshold = too weak to quantify, mostly under pKd 3.1 to 4
# Settings: plain residues with an end cap or a label only (N-terminal biotin on a linker: ado-ado)
row,Binder,pKd
1,B1,below the threshold
2,B2,below the threshold
3,B3,below the threshold
4,B4,below the threshold

# Molecular target: DLG1_1, Q12959
# Experiment: holdup assay
# Parameters: key: below the threshold = too weak to quantify, mostly under pKd 3.1 to 4
# Settings: plain residues with an end cap or a label only (N-terminal biotin on a linker: ado-ado)
row,Binder,pKd
1,B1,below the threshold
2,B2,5.12
3,B3,3.7
4,B4,below the threshold

# Molecular target: DLG1_2, Q12959
# Experiment: holdup assay
# Parameters: key: below the threshold = too weak to quantify, mostly under pKd 3.1 to 4
# Settings: plain residues with an end cap or a label only (N-terminal biotin on a linker: ado-ado)
row,Binder,pKd
1,B1,3.49
2,B2,5.48
3,B3,4.45
4,B4,3.6

# Molecular target: DLG1_3, Q12959
# Experiment: holdup assay
# Parameters: key: below the threshold = too weak to quantify, mostly under pKd 3.1 to 4
# Settings: plain residues with an end cap or a label only (N-terminal biotin on a linker: ado-ado)
row,Binder,pKd
1,B1,below the threshold
2,B2,4.78
3,B3,below the threshold
4,B4,below the threshold

# Molecular target: T4, GRIP1_7, Q9Y3R0
# T4 sequence (Q9Y3R0 999-1096, limits assumed, looked up): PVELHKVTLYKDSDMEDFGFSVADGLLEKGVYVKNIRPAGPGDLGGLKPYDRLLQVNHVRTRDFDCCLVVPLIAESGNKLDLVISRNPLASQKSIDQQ
# Experiment: holdup assay
# Parameters: key: below the threshold = too weak to quantify, mostly under pKd 3.1 to 4
# Settings: plain residues with an end cap or a label only (N-terminal biotin on a linker: ado-ado)
row,Binder,pKd
1,B1,below the threshold
2,B2,below the threshold
3,B3,below the threshold
4,B4,below the threshold

# Molecular target: GRIP2_7, Q9C0E4
# Experiment: holdup assay
# Parameters: key: below the threshold = too weak to quantify, mostly under pKd 3.1 to 4
# Settings: plain residues with an end cap or a label only (N-terminal biotin on a linker: ado-ado)
# Chain of GRIP2_7, Q9C0E4 (Q9C0E4 934-1023): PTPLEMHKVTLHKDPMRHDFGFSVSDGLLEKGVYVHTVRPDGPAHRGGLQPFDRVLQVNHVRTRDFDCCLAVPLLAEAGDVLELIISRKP
row,Binder,pKd
1,B1,below the threshold
2,B2,below the threshold
3,B3,below the threshold
4,B4,below the threshold

# Molecular target: Inadl_5, Q8NI35
# Experiment: holdup assay
# Parameters: key: below the threshold = too weak to quantify, mostly under pKd 3.1 to 4
# Settings: plain residues with an end cap or a label only (N-terminal biotin on a linker: ado-ado)
# Chain of Inadl_5, Q8NI35 (Q8NI35 673-780): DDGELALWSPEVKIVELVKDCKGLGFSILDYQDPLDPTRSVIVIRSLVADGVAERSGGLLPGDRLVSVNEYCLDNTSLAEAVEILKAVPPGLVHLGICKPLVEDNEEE
row,Binder,pKd
1,B1,below the threshold
2,B2,below the threshold
3,B3,below the threshold
4,B4,below the threshold

# Molecular target: LNX1_3, Q8TBB1
# Experiment: holdup assay
# Parameters: key: below the threshold = too weak to quantify, mostly under pKd 3.1 to 4
# Settings: plain residues with an end cap or a label only (N-terminal biotin on a linker: ado-ado)
# Chain of LNX1_3, Q8TBB1 (Q8TBB1 500-596): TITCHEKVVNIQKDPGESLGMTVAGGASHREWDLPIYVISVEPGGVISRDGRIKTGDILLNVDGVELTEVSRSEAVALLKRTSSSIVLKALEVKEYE
row,Binder,pKd
1,B1,below the threshold
2,B2,below the threshold
3,B3,below the threshold
4,B4,below the threshold

# Molecular target: T5, LRRC7, Q96NW7
# T5 sequence (Q96NW7 1440-1537, limits assumed, looked up): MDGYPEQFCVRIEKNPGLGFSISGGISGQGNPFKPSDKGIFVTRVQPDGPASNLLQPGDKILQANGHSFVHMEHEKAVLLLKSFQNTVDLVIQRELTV
# Experiment: holdup assay
# Parameters: key: below the threshold = too weak to quantify, mostly under pKd 3.1 to 4
# Settings: plain residues with an end cap or a label only (N-terminal biotin on a linker: ado-ado)
row,Binder,pKd
1,B1,below the threshold
2,B2,3.82
3,B3,3.74
4,B4,below the threshold

# Molecular target: MAGI1_2, Q96QZ7
# Experiment: holdup assay
# Parameters: key: below the threshold = too weak to quantify, mostly under pKd 3.1 to 4
# Settings: plain residues with an end cap or a label only (N-terminal biotin on a linker: ado-ado)
# Chain of MAGI1_2, Q96QZ7 (Q96QZ7 456-580): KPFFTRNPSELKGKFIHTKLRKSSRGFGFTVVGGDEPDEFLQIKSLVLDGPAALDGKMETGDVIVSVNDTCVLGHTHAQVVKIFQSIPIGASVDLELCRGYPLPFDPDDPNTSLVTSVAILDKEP
row,Binder,pKd
1,B1,below the threshold
2,B2,4.91
3,B3,below the threshold
4,B4,below the threshold

# Molecular target: MAGI2_2, Q86UL8
# Experiment: holdup assay
# Parameters: key: below the threshold = too weak to quantify, mostly under pKd 3.1 to 4
# Settings: plain residues with an end cap or a label only (N-terminal biotin on a linker: ado-ado)
# Chain of MAGI2_2, Q86UL8 (Q86UL8 410-522): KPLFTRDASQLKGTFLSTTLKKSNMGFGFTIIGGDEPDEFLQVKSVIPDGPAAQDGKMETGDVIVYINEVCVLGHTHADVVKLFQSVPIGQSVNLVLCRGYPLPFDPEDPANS
row,Binder,pKd
1,B1,below the threshold
2,B2,5.22
3,B3,below the threshold
4,B4,below the threshold

# Molecular target: MAGI2_4, Q86UL8
# Experiment: holdup assay
# Parameters: key: below the threshold = too weak to quantify, mostly under pKd 3.1 to 4
# Settings: plain residues with an end cap or a label only (N-terminal biotin on a linker: ado-ado)
# Chain of MAGI2_4, Q86UL8 (Q86UL8 772-865): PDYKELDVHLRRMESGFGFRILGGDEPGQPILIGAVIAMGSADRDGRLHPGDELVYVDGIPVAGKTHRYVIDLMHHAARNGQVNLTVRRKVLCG
row,Binder,pKd
1,B1,below the threshold
2,B2,4.77
3,B3,below the threshold
4,B4,below the threshold

# Molecular target: T6, MPDZ_10, O75970
# T6 sequence (O75970 1624-1722, limits assumed, looked up): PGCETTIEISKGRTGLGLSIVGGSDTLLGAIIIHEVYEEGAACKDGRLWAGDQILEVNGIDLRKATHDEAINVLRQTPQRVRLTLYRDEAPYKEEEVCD
# Experiment: holdup assay
# Parameters: key: below the threshold = too weak to quantify, mostly under pKd 3.1 to 4
# Settings: plain residues with an end cap or a label only (N-terminal biotin on a linker: ado-ado)
row,Binder,pKd
1,B1,below the threshold
2,B2,below the threshold
3,B3,below the threshold
4,B4,below the threshold

# Molecular target: T7, MPDZ_12, O75970
# T7 sequence (O75970 1857-1958, limits assumed, looked up): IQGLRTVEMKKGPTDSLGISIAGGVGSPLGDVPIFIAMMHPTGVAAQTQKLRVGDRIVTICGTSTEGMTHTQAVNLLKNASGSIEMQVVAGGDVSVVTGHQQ
# Experiment: holdup assay
# Parameters: key: below the threshold = too weak to quantify, mostly under pKd 3.1 to 4
# Settings: plain residues with an end cap or a label only (N-terminal biotin on a linker: ado-ado)
row,Binder,pKd
1,B1,3.5
2,B2,below the threshold
3,B3,below the threshold
4,B4,below the threshold

# Molecular target: T8, NHERF3_1, Q5T2W1
# T8 sequence (Q5T2W1 4-100, limits assumed, looked up): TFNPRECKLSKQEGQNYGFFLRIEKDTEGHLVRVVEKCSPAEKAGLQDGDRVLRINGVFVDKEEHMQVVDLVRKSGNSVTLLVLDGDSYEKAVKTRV
# Experiment: holdup assay
# Parameters: key: below the threshold = too weak to quantify, mostly under pKd 3.1 to 4
# Settings: plain residues with an end cap or a label only (N-terminal biotin on a linker: ado-ado)
row,Binder,pKd
1,B1,3.86
2,B2,3.63
3,B3,below the threshold
4,B4,below the threshold

# Molecular target: NHERF4_4, Q86UT5
# Experiment: holdup assay
# Parameters: key: below the threshold = too weak to quantify, mostly under pKd 3.1 to 4
# Settings: plain residues with an end cap or a label only (N-terminal biotin on a linker: ado-ado)
# Chain of NHERF4_4, Q86UT5 (Q86UT5 464-550): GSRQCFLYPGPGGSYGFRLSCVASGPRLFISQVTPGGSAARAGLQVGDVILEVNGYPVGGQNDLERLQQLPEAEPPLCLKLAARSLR
row,Binder,pKd
1,B1,below the threshold
2,B2,3.87
3,B3,below the threshold
4,B4,below the threshold

# Molecular target: PDZRN4_1, Q6ZMN7
# Experiment: holdup assay
# Parameters: key: below the threshold = too weak to quantify, mostly under pKd 3.1 to 4
# Settings: plain residues with an end cap or a label only (N-terminal biotin on a linker: ado-ado)
# Chain of PDZRN4_1, Q6ZMN7 (Q6ZMN7 213-318): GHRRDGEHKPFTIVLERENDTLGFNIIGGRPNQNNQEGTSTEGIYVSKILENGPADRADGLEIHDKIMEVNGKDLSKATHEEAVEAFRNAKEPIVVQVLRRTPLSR
row,Binder,pKd
1,B1,below the threshold
2,B2,4.56
3,B3,below the threshold
4,B4,below the threshold

# Molecular target: T9, PTPN13_1, Q12923
# T9 sequence (Q12923 1088-1188, limits assumed, looked up): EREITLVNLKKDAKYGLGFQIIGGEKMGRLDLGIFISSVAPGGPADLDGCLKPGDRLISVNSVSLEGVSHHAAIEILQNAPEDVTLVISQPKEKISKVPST
# Experiment: holdup assay
# Parameters: key: below the threshold = too weak to quantify, mostly under pKd 3.1 to 4
# Settings: plain residues with an end cap or a label only (N-terminal biotin on a linker: ado-ado)
row,Binder,pKd
1,B1,below the threshold
2,B2,below the threshold
3,B3,below the threshold
4,B4,below the threshold

# Molecular target: T10, RHPN1, Q8TCX5
# T10 sequence (Q8TCX5 508-602, limits assumed, looked up): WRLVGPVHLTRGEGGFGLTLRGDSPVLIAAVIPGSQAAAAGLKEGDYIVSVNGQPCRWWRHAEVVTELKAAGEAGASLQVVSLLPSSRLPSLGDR
# Experiment: holdup assay
# Parameters: key: below the threshold = too weak to quantify, mostly under pKd 3.1 to 4
# Settings: plain residues with an end cap or a label only (N-terminal biotin on a linker: ado-ado)
row,Binder,pKd
1,B1,below the threshold
2,B2,4.44
3,B3,4.17
4,B4,below the threshold

# Molecular target: T11, SNTA1, Q13424
# T11 sequence (Q13424 82-180, limits assumed, looked up): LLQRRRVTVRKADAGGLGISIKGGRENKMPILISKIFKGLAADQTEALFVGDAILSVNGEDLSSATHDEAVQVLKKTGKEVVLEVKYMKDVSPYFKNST
# Experiment: holdup assay
# Parameters: key: below the threshold = too weak to quantify, mostly under pKd 3.1 to 4
# Settings: plain residues with an end cap or a label only (N-terminal biotin on a linker: ado-ado)
row,Binder,pKd
1,B1,below the threshold
2,B2,4.58
3,B3,4.33
4,B4,below the threshold

# Molecular target: T12, SYNJ2BP, P57105
# T12 sequence (P57105 8-110, limits assumed, looked up): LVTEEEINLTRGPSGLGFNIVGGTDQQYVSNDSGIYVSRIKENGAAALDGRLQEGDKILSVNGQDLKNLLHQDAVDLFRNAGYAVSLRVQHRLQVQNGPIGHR
# Experiment: holdup assay
# Parameters: key: below the threshold = too weak to quantify, mostly under pKd 3.1 to 4
# Settings: plain residues with an end cap or a label only (N-terminal biotin on a linker: ado-ado)
row,Binder,pKd
1,B1,below the threshold
2,B2,5.19
3,B3,below the threshold
4,B4,below the threshold

# Molecular target: T13, TJP3_3, O95049
# T13 sequence (O95049 375-456, limits assumed, looked up): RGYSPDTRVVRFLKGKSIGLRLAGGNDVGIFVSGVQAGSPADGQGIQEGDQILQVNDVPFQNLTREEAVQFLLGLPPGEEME
# Experiment: holdup assay
# Parameters: key: below the threshold = too weak to quantify, mostly under pKd 3.1 to 4
# Settings: plain residues with an end cap or a label only (N-terminal biotin on a linker: ado-ado)
row,Binder,pKd
1,B1,below the threshold
2,B2,below the threshold
3,B3,below the threshold
4,B4,below the threshold

# From PMC9482650, “Quantitative fragmentomics allow affinity mapping of interactomes” (Nature Communications, 2022)
